By Kd is commonly meant the constant that tells how readily two partners part at equilibrium. A lower Kd goes with higher affinity.

For this series, the target named is Exotoxin A (Pseudomonas aeruginosa, UniProt P11439 26-638). The series can be described thus: SPR; […]; 0-2 uM analyte, 1:1 kinetic model; SPR (Biacore X100): 100 mM NaCl, 20 mM Tris-HCl, 2 mM MgCl2 (pH not stated), room temperature, 5 uL/min. To be noted: protein: commercial; tags: none stated. For orientation: Surface plasmon resonance follows binding to a sensor surface in real time, without labels.
Chain of Exotoxin A (P11439 26-638): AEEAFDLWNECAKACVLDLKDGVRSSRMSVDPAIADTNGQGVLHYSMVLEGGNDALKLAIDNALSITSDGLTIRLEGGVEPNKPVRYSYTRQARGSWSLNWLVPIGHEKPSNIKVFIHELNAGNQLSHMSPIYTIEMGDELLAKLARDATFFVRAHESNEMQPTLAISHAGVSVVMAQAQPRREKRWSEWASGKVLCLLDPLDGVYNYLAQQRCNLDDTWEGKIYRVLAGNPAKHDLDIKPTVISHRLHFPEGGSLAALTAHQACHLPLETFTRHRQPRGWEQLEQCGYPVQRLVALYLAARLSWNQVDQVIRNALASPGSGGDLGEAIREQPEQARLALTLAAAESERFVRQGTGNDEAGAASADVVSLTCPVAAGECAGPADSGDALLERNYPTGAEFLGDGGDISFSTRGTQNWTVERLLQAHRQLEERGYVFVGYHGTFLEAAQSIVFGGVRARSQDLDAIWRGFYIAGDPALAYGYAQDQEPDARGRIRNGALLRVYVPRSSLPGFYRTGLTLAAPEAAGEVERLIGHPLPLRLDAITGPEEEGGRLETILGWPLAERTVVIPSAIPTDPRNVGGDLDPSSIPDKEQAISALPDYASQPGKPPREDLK

B1: R14.33 (ssDNA)
DNA: TGTACCGTCTGAGCGATTCGTACCATAGGGTGCTTTTCAAGGCCACACGTTAGTGTAAGCCAGTCAGTGTTAAGGAGTGC
modifications: 5' amino-C6
B1 showed a Kd of 4.35 µM.

For the origin of these results see publication PMC4655287, “Selection of Single-Stranded DNA Molecular Recognition Elements against Exotoxin A Using a Novel Decoy-SELEX Method and Sensitive Detection of Exotoxin A in Human Serum”.
